Test results published in the Human Domainome abundance scans (Beltran et al. 2025).
± gives the uncertainty stated by the source.

B1: Formin-binding protein 4, residues 200 to 261; numbered along this chain, Q8N3X1 (parent)
chain: SGWQYDTQCSLAGVGIEMGDWQEVWDENTGCYYYWNTQTNEVTWELPQYLATQVQGLQHYQP

Variants of: B1
Experiment: abundance fitness (aPCA) (normalised: wild type 0, dead -1); higher = more abundant; growth selection in yeast, the domain comes from the species named
Settings: Homo sapiens

Q: With SGWQYDTQCSLAGVGIEMGDWQEVWGENTGCYYYWNTQTNEVTWELPQYLATQVQGLQHYQP as the variant, how does the abundance fitness read?
A: Its abundance fitness is -0.373 ± 0.068.

Q: Which abundance fitness does the source give for SGWQYDTQCSLAGVGIEMGDWQEVWQENTGCYYYWNTQTNEVTWELPQYLATQVQGLQHYQP here?
A: Its abundance fitness is -0.181 ± 0.097.

Q: For SGWQYDTQCSLAGVGIEMGDWQEVWKENTGCYYYWNTQTNEVTWELPQYLATQVQGLQHYQP, which abundance fitness is on record?
A: Its abundance fitness is -0.345 ± 0.12.

Q: Which abundance fitness does the source give for SGWQYDTQCSLAGVGIEMGDWQEVWLENTGCYYYWNTQTNEVTWELPQYLATQVQGLQHYQP here?
A: The abundance fitness was -0.5 ± 0.072.

Q: With SGWQYDTQCSLAGVGIEMGDWQEVWEENTGCYYYWNTQTNEVTWELPQYLATQVQGLQHYQP as the variant, how does the abundance fitness read?
A: Its abundance fitness is -0.148 ± 0.077.

Q: With SGWQYDTQCSLAGVGIEMGDWQEVWMENTGCYYYWNTQTNEVTWELPQYLATQVQGLQHYQP as the variant, how does the abundance fitness read?
A: Its abundance fitness is -0.09 ± 0.088.

Q: For SGWQYDTQCSLAGVGIEMGDWQEVWVENTGCYYYWNTQTNEVTWELPQYLATQVQGLQHYQP, which abundance fitness is on record?
A: Its abundance fitness is -0.384 ± 0.067.

Q: For SGWQYDTQCSLAGVGIEMGDWQEVWYENTGCYYYWNTQTNEVTWELPQYLATQVQGLQHYQP, which abundance fitness is on record?
A: Its abundance fitness is -0.322 ± 0.12.

Q: For SGWQYDTQCSLAGVGIEMGDWQEVWDETTGCYYYWNTQTNEVTWELPQYLATQVQGLQHYQP, which abundance fitness is on record?
A: The abundance fitness was -0.153 ± 0.095.

Q: For SGWQYDTQCSLAGVGIEMGDWQEVWDEYTGCYYYWNTQTNEVTWELPQYLATQVQGLQHYQP, which abundance fitness is on record?
A: Its abundance fitness is -0.245 ± 0.13.

Q: With SGWQYDTQCSLAGVGIEMGDWQEVWDEITGCYYYWNTQTNEVTWELPQYLATQVQGLQHYQP as the variant, how does the abundance fitness read?
A: Its abundance fitness is 0.281 ± 0.14.

Q: With SGWQYDTQCSLAGVGIEMGDWQEVWDEVTGCYYYWNTQTNEVTWELPQYLATQVQGLQHYQP as the variant, how does the abundance fitness read?
A: The abundance fitness was -0.507 ± 0.075.

Q: Which abundance fitness does the source give for SGWQYDTQCSLAGVGIEMGDWQEVWDEKTGCYYYWNTQTNEVTWELPQYLATQVQGLQHYQP here?
A: Its abundance fitness is 0.108 ± 0.095.

Q: Which abundance fitness does the source give for SGWQYDTQCSLAGVGIEMGDWQEVWDEHTGCYYYWNTQTNEVTWELPQYLATQVQGLQHYQP here?
A: Its abundance fitness is -0.229 ± 0.16.

Q: Which abundance fitness does the source give for SGWQYDTQCSLAGVGIEMGDWQEVWDECTGCYYYWNTQTNEVTWELPQYLATQVQGLQHYQP here?
A: Its abundance fitness is -0.022 ± 0.096.

Q: Which abundance fitness does the source give for SGWQYDTQCSLAGVGIEMGDWQEVWDEMTGCYYYWNTQTNEVTWELPQYLATQVQGLQHYQP here?
A: Its abundance fitness is -0.32 ± 0.088.

Q: Which abundance fitness does the source give for SGWQYDTQCSLAGVGIEMGDWQEVWDEDTGCYYYWNTQTNEVTWELPQYLATQVQGLQHYQP here?
A: Its abundance fitness is -0.002 ± 0.11.

Q: With SGWQYDTQCSLAGVGIEMGDWQEVWDEGTGCYYYWNTQTNEVTWELPQYLATQVQGLQHYQP as the variant, how does the abundance fitness read?
A: The abundance fitness was 0.073 ± 0.057.

Q: With SGWQYDTQCSLAGVGIEMGDWQEVWDEFTGCYYYWNTQTNEVTWELPQYLATQVQGLQHYQP as the variant, how does the abundance fitness read?
A: Its abundance fitness is -0.329 ± 0.11.

Q: For SGWQYDTQCSLAGVGIEMGDWQEVWDEETGCYYYWNTQTNEVTWELPQYLATQVQGLQHYQP, which abundance fitness is on record?
A: Its abundance fitness is -0.07 ± 0.077.

Q: With SGWQYDTQCSLAGVGIEMGDWQEVWDESTGCYYYWNTQTNEVTWELPQYLATQVQGLQHYQP as the variant, how does the abundance fitness read?
A: Its abundance fitness is -0.151 ± 0.07.

Q: With SGWQYDTQCSLAGVGIEMGDWQEVWDELTGCYYYWNTQTNEVTWELPQYLATQVQGLQHYQP as the variant, how does the abundance fitness read?
A: Its abundance fitness is -0.233 ± 0.057.

Q: For SGWQYDTQCSLAGVGIEMGDWQEVWDEPTGCYYYWNTQTNEVTWELPQYLATQVQGLQHYQP, which abundance fitness is on record?
A: Its abundance fitness is -0.133 ± 0.092.

Q: For SGWQYDTQCSLAGVGIEMGDWQEVWDEWTGCYYYWNTQTNEVTWELPQYLATQVQGLQHYQP, which abundance fitness is on record?
A: Its abundance fitness is -0.291 ± 0.069.

Q: For SGWQYDTQCSLAGVGIEMGDWQEVWDGNTGCYYYWNTQTNEVTWELPQYLATQVQGLQHYQP, which abundance fitness is on record?
A: Its abundance fitness is -0.066 ± 0.063.

Q: With SGWQYDTQCSLAGVGIEMGDWQEVWDDNTGCYYYWNTQTNEVTWELPQYLATQVQGLQHYQP as the variant, how does the abundance fitness read?
A: Its abundance fitness is 0.101 ± 0.095.

Q: With SGWQYDTQCSLAGVGIEMGDWQEVWDSNTGCYYYWNTQTNEVTWELPQYLATQVQGLQHYQP as the variant, how does the abundance fitness read?
A: Its abundance fitness is -0.187 ± 0.074.

Q: With SGWQYDTQCSLAGVGIEMGDWQEVWDMNTGCYYYWNTQTNEVTWELPQYLATQVQGLQHYQP as the variant, how does the abundance fitness read?
A: The abundance fitness was -0.381 ± 0.092.

Q: With SGWQYDTQCSLAGVGIEMGDWQEVWDTNTGCYYYWNTQTNEVTWELPQYLATQVQGLQHYQP as the variant, how does the abundance fitness read?
A: Its abundance fitness is -0.199 ± 0.094.

Q: With SGWQYDTQCSLAGVGIEMGDWQEVWDCNTGCYYYWNTQTNEVTWELPQYLATQVQGLQHYQP as the variant, how does the abundance fitness read?
A: The abundance fitness was -0.213 ± 0.1.

Q: For SGWQYDTQCSLAGVGIEMGDWQEVWDLNTGCYYYWNTQTNEVTWELPQYLATQVQGLQHYQP, which abundance fitness is on record?
A: Its abundance fitness is -0.429 ± 0.071.

Q: For SGWQYDTQCSLAGVGIEMGDWQEVWDFNTGCYYYWNTQTNEVTWELPQYLATQVQGLQHYQP, which abundance fitness is on record?
A: The abundance fitness was -0.319 ± 0.12.

Q: With SGWQYDTQCSLAGVGIEMGDWQEVWDINTGCYYYWNTQTNEVTWELPQYLATQVQGLQHYQP as the variant, how does the abundance fitness read?
A: Its abundance fitness is -0.174 ± 0.13.

Q: For SGWQYDTQCSLAGVGIEMGDWQEVWDVNTGCYYYWNTQTNEVTWELPQYLATQVQGLQHYQP, which abundance fitness is on record?
A: Its abundance fitness is -0.373 ± 0.066.

Q: Which abundance fitness does the source give for SGWQYDTQCSLAGVGIEMGDWQEVWDNNTGCYYYWNTQTNEVTWELPQYLATQVQGLQHYQP here?
A: Its abundance fitness is -0.127 ± 0.14.

Q: With SGWQYDTQCSLAGVGIEMGDWQEVWDQNTGCYYYWNTQTNEVTWELPQYLATQVQGLQHYQP as the variant, how does the abundance fitness read?
A: The abundance fitness was -0.168 ± 0.12.

Q: With SGWQYDTQCSLAGVGIEMGDWQEVWDANTGCYYYWNTQTNEVTWELPQYLATQVQGLQHYQP as the variant, how does the abundance fitness read?
A: The abundance fitness was 0.043 ± 0.064.

Q: With SGWQYDTQCSLAGVGIEMGDWQEVWDPNTGCYYYWNTQTNEVTWELPQYLATQVQGLQHYQP as the variant, how does the abundance fitness read?
A: Its abundance fitness is -0.349 ± 0.12.

Q: With SGWQYDTQCSLAGVGIEMGDWQEVWDHNTGCYYYWNTQTNEVTWELPQYLATQVQGLQHYQP as the variant, how does the abundance fitness read?
A: Its abundance fitness is 0.516 ± 0.11.

Q: Which abundance fitness does the source give for SGWQYDTQCSLAGVGIEMGDWQEVWDRNTGCYYYWNTQTNEVTWELPQYLATQVQGLQHYQP here?
A: Its abundance fitness is -0.112 ± 0.058.

Q: With SGWQYDTQCSLAGVGIEMGDWQEVWDWNTGCYYYWNTQTNEVTWELPQYLATQVQGLQHYQP as the variant, how does the abundance fitness read?
A: The abundance fitness was -0.601 ± 0.11.

Q: Which abundance fitness does the source give for SGWQYDTQCSLAGVGIEMGDWQEVWDYNTGCYYYWNTQTNEVTWELPQYLATQVQGLQHYQP here?
A: Its abundance fitness is -0.288 ± 0.17.

Q: For SGWQYDTQCSLAGVGIEMGDWQEVWDKNTGCYYYWNTQTNEVTWELPQYLATQVQGLQHYQP, which abundance fitness is on record?
A: The abundance fitness was 0.076 ± 0.1.
